# Assay results published in patent US20020062008A1.
# B1: soluble VCAM-1/IgG1 fusion protein (seven extracellular immunoglobulin-like domains) (Fc fusion, UniProt P19320 25-698, looked up, not shown: a dimerising Fc or GST)
# chain: FKIETTPESRYLAQIGDSVSLTCSTTGCESPFFSWRTQIDSPLNGKVTNEGTTSTLTMNPVSFGNEHSYLCTATCESRKLEKGIQVEIYSFPKDPEIHLSGPLEAGKPITVKCSVADVYPFDRLEIDLLKGDHLMKSQEFLEDADRKSLETKSLEVTFTPVIEDIGKVLVCRAKLHIDEMDSVPTVRQAVKELQVYISPKNTVISVNPSTKLQEGGSVTMTCSSEGLPAPEIFWSKKLDNGNLQHLSGNATLTLIAMRMEDSGIYVCEGVNLIGKNRKEVELIVQEKPFTVEISPGPRIAAQIGDSVMLTCSVMGCESPSFSWRTQIDSPLSGKVRSEGTNSTLTLSPVSFENEHSYLCTVTCGHKKLEKGIQVELYSFPRDPEIEMSGGLVNGSSVTVSCKVPSVYPLDRLEIELLKGETILENIEFLEDTDMKSLENKSLEMTFIPTIEDTGKALVCQAKLHIDDMEFEPKQRQSTQTLYVNVAPRDTTVLVSPSSILEEGSSVNMTCLSQGFPAPKILWSRQLPNGELQPLSENATLTLISTKMEDSGVYLCEGINQAGRSRKEVELIIQVTPKDIKLTAFPSESVKEGDTVIISCTCGNVPETWIILKKKAETGDTVLKSIDGAYTIRKAQLKDAGVYECESKNKVGSQLRSLTLDVQGRENNKDYFSPE
# B2: ICAM-2/Ig (Fc fusion, part only; not given: Ig portion, UniProt P13598 25-223, looked up, part only)
# chain, part: KVFEVHVRPKKLAVEPKGSLEVNCSTTCNQPEVGGLETSLDKILLDEQAQWKHYLVSNISHDTVLQCHFTCSGKQESMNSNVSVYQPPRQVILTLQPTLVAVGKSFTIECRVPTVEPLDSLTLFLFRGNETLHYETFGKAAPAPQEATATFNSTADREDGHRNFSCLAVLDLMSRGGNIFHKHSAPKMLEIYEPVSDSQ
# Tests used:
# [1] = target: soluble human αd/CD18 leucine zipper heterodimer (human) (UniProt P05107); assay: ELISA, CAM/Ig on αd/CD18LZ captured with 212D
# [2] = target: LFA-1 leucine zipper fusion protein (soluble CD11a/CD18) (UniProt P20701); assay: ELISA, CAM/Ig on captured soluble CD11a/CD18
Binder,fold increase in signal above background [1],fold above background [2]
B1,5 fold,–
B2,–,10 fold
